B1: GpH7-A5/GpH7-B3 variant L234_14T/GpL16-k0 (antibody, human IgG1, kappa)
heavy 1: not shown
heavy 2: not shown
light: DIVMTQSPLSLPVTPGEPASISCQASESLVHSNRNTYLHWYLQKPGQSPQLLIYKVSNRFSGVPDRFSGSGSGTDFTLKISRVEAEDVGVYYCSQNTHVPPTFGQGTKVEIERTVAAPSVFIFPPSDEQLKSGTASVVCLLNNFYPREAKVQWKVDNALQSGNSQESVTEQDSKDSTYSLSSTLTLSKADYEKHKVYACEVTHQGLSSPVTKSFNRGEC
B2: GpH7-A5/GpH7-B3 variant L235_07I/GpL16-k0 (antibody, human IgG1, kappa)
heavy 1: not shown
heavy 2: not shown
light: DIVMTQSPLSLPVTPGEPASISCQASESLVHSNRNTYLHWYLQKPGQSPQLLIYKVSNRFSGVPDRFSGSGSGTDFTLKISRVEAEDVGVYYCSQNTHVPPTFGQGTKVEIERTVAAPSVFIFPPSDEQLKSGTASVVCLLNNFYPREAKVQWKVDNALQSGNSQESVTEQDSKDSTYSLSSTLTLSKADYEKHKVYACEVTHQGLSSPVTKSFNRGEC
B3: GpH7-A5/GpH7-B3 variant L235_13S/GpL16-k0 (antibody, human IgG1, kappa)
heavy 1: not shown
heavy 2: not shown
light: DIVMTQSPLSLPVTPGEPASISCQASESLVHSNRNTYLHWYLQKPGQSPQLLIYKVSNRFSGVPDRFSGSGSGTDFTLKISRVEAEDVGVYYCSQNTHVPPTFGQGTKVEIERTVAAPSVFIFPPSDEQLKSGTASVVCLLNNFYPREAKVQWKVDNALQSGNSQESVTEQDSKDSTYSLSSTLTLSKADYEKHKVYACEVTHQGLSSPVTKSFNRGEC
B4: GpH7-A5/GpH7-B3 variant L235_05P/GpL16-k0 (antibody, human IgG1, kappa)
heavy 1: not shown
heavy 2: not shown
light: DIVMTQSPLSLPVTPGEPASISCQASESLVHSNRNTYLHWYLQKPGQSPQLLIYKVSNRFSGVPDRFSGSGSGTDFTLKISRVEAEDVGVYYCSQNTHVPPTFGQGTKVEIERTVAAPSVFIFPPSDEQLKSGTASVVCLLNNFYPREAKVQWKVDNALQSGNSQESVTEQDSKDSTYSLSSTLTLSKADYEKHKVYACEVTHQGLSSPVTKSFNRGEC
B5: GpH7-A5/GpH7-B3 variant L235_09D/GpL16-k0 (antibody, human IgG1, kappa)
heavy 1: not shown
heavy 2: not shown
light: DIVMTQSPLSLPVTPGEPASISCQASESLVHSNRNTYLHWYLQKPGQSPQLLIYKVSNRFSGVPDRFSGSGSGTDFTLKISRVEAEDVGVYYCSQNTHVPPTFGQGTKVEIERTVAAPSVFIFPPSDEQLKSGTASVVCLLNNFYPREAKVQWKVDNALQSGNSQESVTEQDSKDSTYSLSSTLTLSKADYEKHKVYACEVTHQGLSSPVTKSFNRGEC
B6: GpH7-A5/GpH7-B3 variant L234_15Y/GpL16-k0 (antibody, human IgG1, kappa)
heavy 1: not shown
heavy 2: not shown
light: DIVMTQSPLSLPVTPGEPASISCQASESLVHSNRNTYLHWYLQKPGQSPQLLIYKVSNRFSGVPDRFSGSGSGTDFTLKISRVEAEDVGVYYCSQNTHVPPTFGQGTKVEIERTVAAPSVFIFPPSDEQLKSGTASVVCLLNNFYPREAKVQWKVDNALQSGNSQESVTEQDSKDSTYSLSSTLTLSKADYEKHKVYACEVTHQGLSSPVTKSFNRGEC
B7: GpH7-A5/GpH7-B3 variant L235_06M/GpL16-k0 (antibody, human IgG1, kappa)
heavy 1: not shown
heavy 2: not shown
light: DIVMTQSPLSLPVTPGEPASISCQASESLVHSNRNTYLHWYLQKPGQSPQLLIYKVSNRFSGVPDRFSGSGSGTDFTLKISRVEAEDVGVYYCSQNTHVPPTFGQGTKVEIERTVAAPSVFIFPPSDEQLKSGTASVVCLLNNFYPREAKVQWKVDNALQSGNSQESVTEQDSKDSTYSLSSTLTLSKADYEKHKVYACEVTHQGLSSPVTKSFNRGEC
B8: GpH7-A5/GpH7-B3 variant L234_19Q/GpL16-k0 (antibody, human IgG1, kappa)
heavy 1: not shown
heavy 2: not shown
light: DIVMTQSPLSLPVTPGEPASISCQASESLVHSNRNTYLHWYLQKPGQSPQLLIYKVSNRFSGVPDRFSGSGSGTDFTLKISRVEAEDVGVYYCSQNTHVPPTFGQGTKVEIERTVAAPSVFIFPPSDEQLKSGTASVVCLLNNFYPREAKVQWKVDNALQSGNSQESVTEQDSKDSTYSLSSTLTLSKADYEKHKVYACEVTHQGLSSPVTKSFNRGEC
B9: GpH7-A5/GpH7-B3 variant L234_16H/GpL16-k0 (antibody, human IgG1, kappa)
heavy 1: not shown
heavy 2: not shown
light: DIVMTQSPLSLPVTPGEPASISCQASESLVHSNRNTYLHWYLQKPGQSPQLLIYKVSNRFSGVPDRFSGSGSGTDFTLKISRVEAEDVGVYYCSQNTHVPPTFGQGTKVEIERTVAAPSVFIFPPSDEQLKSGTASVVCLLNNFYPREAKVQWKVDNALQSGNSQESVTEQDSKDSTYSLSSTLTLSKADYEKHKVYACEVTHQGLSSPVTKSFNRGEC
B10: GpH7-A5/GpH7-B3 variant L234_18N/GpL16-k0 (antibody, human IgG1, kappa)
heavy 1: not shown
heavy 2: not shown
light: DIVMTQSPLSLPVTPGEPASISCQASESLVHSNRNTYLHWYLQKPGQSPQLLIYKVSNRFSGVPDRFSGSGSGTDFTLKISRVEAEDVGVYYCSQNTHVPPTFGQGTKVEIERTVAAPSVFIFPPSDEQLKSGTASVVCLLNNFYPREAKVQWKVDNALQSGNSQESVTEQDSKDSTYSLSSTLTLSKADYEKHKVYACEVTHQGLSSPVTKSFNRGEC
B11: GpH7-A5/GpH7-B3 variant L234_20W/GpL16-k0 (antibody, human IgG1, kappa)
heavy 1: not shown
heavy 2: not shown
light: DIVMTQSPLSLPVTPGEPASISCQASESLVHSNRNTYLHWYLQKPGQSPQLLIYKVSNRFSGVPDRFSGSGSGTDFTLKISRVEAEDVGVYYCSQNTHVPPTFGQGTKVEIERTVAAPSVFIFPPSDEQLKSGTASVVCLLNNFYPREAKVQWKVDNALQSGNSQESVTEQDSKDSTYSLSSTLTLSKADYEKHKVYACEVTHQGLSSPVTKSFNRGEC
B12: GpH7-A5/GpH7-B3 variant L235_02A/GpL16-k0 (antibody, human IgG1, kappa)
heavy 1: not shown
heavy 2: not shown
light: DIVMTQSPLSLPVTPGEPASISCQASESLVHSNRNTYLHWYLQKPGQSPQLLIYKVSNRFSGVPDRFSGSGSGTDFTLKISRVEAEDVGVYYCSQNTHVPPTFGQGTKVEIERTVAAPSVFIFPPSDEQLKSGTASVVCLLNNFYPREAKVQWKVDNALQSGNSQESVTEQDSKDSTYSLSSTLTLSKADYEKHKVYACEVTHQGLSSPVTKSFNRGEC
B13: GpH7-A5/GpH7-B3 variant L235_04F/GpL16-k0 (antibody, human IgG1, kappa)
heavy 1: not shown
heavy 2: not shown
light: DIVMTQSPLSLPVTPGEPASISCQASESLVHSNRNTYLHWYLQKPGQSPQLLIYKVSNRFSGVPDRFSGSGSGTDFTLKISRVEAEDVGVYYCSQNTHVPPTFGQGTKVEIERTVAAPSVFIFPPSDEQLKSGTASVVCLLNNFYPREAKVQWKVDNALQSGNSQESVTEQDSKDSTYSLSSTLTLSKADYEKHKVYACEVTHQGLSSPVTKSFNRGEC
B14: GpH7-A5/GpH7-B3 variant L235_03V/GpL16-k0 (antibody, human IgG1, kappa)
heavy 1: not shown
heavy 2: not shown
light: DIVMTQSPLSLPVTPGEPASISCQASESLVHSNRNTYLHWYLQKPGQSPQLLIYKVSNRFSGVPDRFSGSGSGTDFTLKISRVEAEDVGVYYCSQNTHVPPTFGQGTKVEIERTVAAPSVFIFPPSDEQLKSGTASVVCLLNNFYPREAKVQWKVDNALQSGNSQESVTEQDSKDSTYSLSSTLTLSKADYEKHKVYACEVTHQGLSSPVTKSFNRGEC
B15: GpH7-A5/GpH7-B3 variant L235_10E/GpL16-k0 (antibody, human IgG1, kappa)
heavy 1: not shown
heavy 2: not shown
light: DIVMTQSPLSLPVTPGEPASISCQASESLVHSNRNTYLHWYLQKPGQSPQLLIYKVSNRFSGVPDRFSGSGSGTDFTLKISRVEAEDVGVYYCSQNTHVPPTFGQGTKVEIERTVAAPSVFIFPPSDEQLKSGTASVVCLLNNFYPREAKVQWKVDNALQSGNSQESVTEQDSKDSTYSLSSTLTLSKADYEKHKVYACEVTHQGLSSPVTKSFNRGEC

What was measured:
Assay in all cases: SPR, vs GpH7-A5/GpH7-B3/GpL16-k0 =100
[1] = target: T1, FcγRIIb extracellular domain, His-tagged (human, UniProt P31994 43-217)
T1 construct: extracellular domain; also called 2b
T1 sequence: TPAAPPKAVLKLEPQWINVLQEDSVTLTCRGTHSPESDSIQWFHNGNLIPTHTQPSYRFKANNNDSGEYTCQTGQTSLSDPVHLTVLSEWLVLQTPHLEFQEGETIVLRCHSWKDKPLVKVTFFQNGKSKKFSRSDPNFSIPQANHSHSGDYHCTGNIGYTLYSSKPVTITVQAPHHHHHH

[2] = target: T2, FcγRIa extracellular domain, His-tagged (human, UniProt P12314 16-292)
T2 construct: extracellular domain; also called 1a
T2 sequence (P12314 other isoform, or with tags, fused parts or gaps): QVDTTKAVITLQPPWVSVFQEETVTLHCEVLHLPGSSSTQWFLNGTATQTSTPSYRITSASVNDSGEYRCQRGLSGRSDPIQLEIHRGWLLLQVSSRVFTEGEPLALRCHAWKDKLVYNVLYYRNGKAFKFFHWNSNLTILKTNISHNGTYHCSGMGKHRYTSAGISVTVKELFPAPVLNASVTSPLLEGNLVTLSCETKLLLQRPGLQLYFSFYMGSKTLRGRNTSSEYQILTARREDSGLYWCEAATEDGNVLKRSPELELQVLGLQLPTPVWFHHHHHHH

[3] = target: T3, FcγRIIIa extracellular domain, His-tagged (human, UniProt P08637 17-208)
T3 construct: extracellular domain; also called 3a
T3 sequence (P08637 other isoform, or with tags, fused parts or gaps): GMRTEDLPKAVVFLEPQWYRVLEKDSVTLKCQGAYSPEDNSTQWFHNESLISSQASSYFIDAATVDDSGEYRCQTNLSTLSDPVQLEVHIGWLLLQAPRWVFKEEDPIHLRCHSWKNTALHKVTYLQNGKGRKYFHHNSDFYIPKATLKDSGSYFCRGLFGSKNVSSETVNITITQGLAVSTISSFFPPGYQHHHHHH

[4] = target: T4, FcγRIIa(R) extracellular domain, His-tagged (human, UniProt P12318 34-217)
T4 construct: extracellular domain; also called 2aR
T4 sequence: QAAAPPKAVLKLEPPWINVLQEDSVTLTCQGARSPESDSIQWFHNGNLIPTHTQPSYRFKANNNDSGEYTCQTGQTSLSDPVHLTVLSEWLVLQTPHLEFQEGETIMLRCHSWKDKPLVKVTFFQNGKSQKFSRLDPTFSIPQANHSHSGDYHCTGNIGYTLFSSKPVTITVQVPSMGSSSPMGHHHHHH

[5] = target: T5, FcγRIIa(H) extracellular domain, His-tagged (human, UniProt P12318 34-217)
T5 construct: extracellular domain; also called 2aH
T5 sequence: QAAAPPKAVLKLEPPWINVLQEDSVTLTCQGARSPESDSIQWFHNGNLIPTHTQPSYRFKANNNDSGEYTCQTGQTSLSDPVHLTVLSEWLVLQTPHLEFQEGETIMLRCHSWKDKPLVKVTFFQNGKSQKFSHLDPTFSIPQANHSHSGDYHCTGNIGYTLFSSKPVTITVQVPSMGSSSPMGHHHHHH

| Binder | He/Con 2b [1] | He/Con 1a [2] | He/Con 3a [3] | He/Con 2aR [4] | He/Con 2aH [5] |
| --- | --- | --- | --- | --- | --- |
| B1 | 71.4 % of control | 102 % of control | 69.8 % of control | 90 % of control | 86.8 % of control |
| B2 | 100 % of control | 103 % of control | 92.8 % of control | 102 % of control | 99.5 % of control |
| B3 | 55 % of control | 93.5 % of control | 67.2 % of control | 75.9 % of control | 73.5 % of control |
| B4 | 62.4 % of control | 97.8 % of control | 68.6 % of control | 74.6 % of control | 64.2 % of control |
| B5 | 121 % of control | 87.6 % of control | 88.5 % of control | 117 % of control | 84.3 % of control |
| B6 | 110 % of control | 103 % of control | 126 % of control | 113 % of control | 134 % of control |
| B7 | 92.4 % of control | 101 % of control | 75.6 % of control | 106 % of control | 96.3 % of control |
| B8 | 68.9 % of control | 98.8 % of control | 77.1 % of control | 87.2 % of control | 88.1 % of control |
| B9 | 67.8 % of control | 97 % of control | 76.8 % of control | 83.5 % of control | 97.1 % of control |
| B10 | 92 % of control | 97.3 % of control | 88.2 % of control | 98 % of control | 100 % of control |
| B11 | 131 % of control | 102 % of control | 103 % of control | 125 % of control | 126 % of control |
| B12 | 72 % of control | 95.2 % of control | 72 % of control | 86.6 % of control | 77.6 % of control |
| B13 | 135 % of control | 100 % of control | 76.4 % of control | 132 % of control | 123 % of control |
| B14 | 75.8 % of control | 97.8 % of control | 94.6 % of control | 83.4 % of control | 94.9 % of control |
| B15 | 90.8 % of control | 96.9 % of control | 85.6 % of control | 98.7 % of control | 80 % of control |
